Here are results for one substance from paper PMC7573561.

One may read the Kd as the concentration at which binding is half-saturated.

For this experiment, the target named is Actin (coated on BLI biosensors). Nature of the experiment: BLI; Octet RED, 25 C; APS (aminopropylsilane) biosensors coated with 10 ug/mL actin; rPDCP-1 in PBS pH 7.4 with 0.05% Tween 20 and 0.1% BSA; 300 s association, 120 s dissociation. Background: Biolayer interferometry detects binding as a change in optical thickness at a sensor tip.

With “Recombinant PDZ-domain-containing-protein-1 (rPDCP-1) (natural protein)”, the equilibrium dissociation constant (Kd) was determined as 0.783 µM.
